Measurements reported in the DeepSol protein solubility set.

Assay: soluble on expression in E. coli; label from the status in PepcDB or PDB records

Sequence | soluble on expression in E. coli
MGSDKIHHHHHHMARMFYDEMHDAGGECRSHYREFARWLADTPEEQLLQRRREADLLFHRAGITFTLYGDEQGTERLIPFDTIPRSIPAAEWAHIEAGCIQRVQALNLFLADLYHEQRILKAGVIPAEQVLANDQYQLAMQGLDLPGNVYAHIAGVDLVRDGSGNYYVLEDNLRTPSGVSYMLENRKMMMRLFPELFVRQRVAPIDHYPDLLLDTLKRASDVESPSVVVLTPGRFNSAYFEHAFLAREMGVELVEGADLFVRDERVYMRTTAGPQPVDVIYRRIDDAFLDPLAFNPDSLLGVPGLLAAYRAGNLVLANAIGTGVADDKSIYPYVPDMIRFYLGEDPLLHNVPTWQCRKPKELAHVLAHLPELVVKETQGSGGYGMLVGPAASREEIELFRERLKARPEAYIAQPTLSLSTCPTFVESGVAPRHIDLRPFVLSAPDRVRLVPGGLTRVALREGSLVVNSSQGGGTKDTWVVEE | not soluble
MSLADVDTGTLTIKGNIAESPCKFEAGGDSVSINMPTVPTSVFEGKAKYSTYDDAVGVTSSMLKISCPKEVAGVKLSLITNDKITGNDKAIASSNDTVGYYLYLGDNSDVLDVSAPFNIESYKTAEGQYAIPFKAKYLKLTDNSVQSGDVLSSLVMRVAQDEGHHHHHH | soluble
MNKKNICALAVLSGLSFSAMALDCDPNLLPSWQDGASKTAIVNYVDQSTDASKKTFIPEQDRIAVFDNDGTLWSEKPYYFQLAFALDQVKNMAKEHPEWKTQEPFKSVLNNDIKNVFAGGEKALLDIVTATHSGMTVEEYQQTVAQWLEVAKDPHFNKAYTELTYKPMREMVTYLQDHDFKVYIVSGGGVDFMRTWAPEVYGIPEEQIIGSALKYKYDYNNSNPTVTKLGEILTIDDKAGKVENIQHIIGKKPVLAIGNSDGDHAMMQWATSQPNSMAMIVHHTDEAREWKYDRKSSVGHLDKAMDEANQRDNWYLIDMKNEWCTVY | soluble
MGSDKIHHHHHHMPYKTLKTIDYEAHHDSKTVGTEYERRIHNYGIFKSGLYPFLIDHQELSQDRRELFITPLREIAIACERIEYNSAELKSKLKELPPIAEELYLKKSLINEITTSNRLSGIAVRRTEVKAALDSINKDNQEQVRFAPMAKMYNKILEDDFQRIESFVDLRKVYNQLLFGLIEKEQMPDGAFFRNRPVSIKNDQQKIIFQLPGNENDLEQRLSNWLKFISNKNIPFMIKGLLAHGYFENIHPFYDGNGRTSRYILSLYLARKLDLVTGLNVAQAIYENRESYEKALLALGDQGNFAEGSFFINDSLSMIENRQRKIIEDLDVNIKQLSRTNKKIQQIYQINSPEYFVLNLLLQSKIFTDNQADGLLDREIVEISENSKHSKRAINLAIKSLEQKKQITTLKKNPFQHSIDIN | not soluble
MTPPIAADYTAQAVSTDTIGYLHSTESGAGVDGPGMRFVFFVSGCQFRCLYCHNPDTWKLHNGRQVSVEQALSEVAPYARFLKFAGGVTISGGEPLMQHEFVGELFHEIKQRFGLHTALDTQGFLHERVSDAWFDDVDLVMLDIKHSDPEKYQALTGQPLQPTLDFALRLKRLRKKMWIRYVLVPGLTDGDADIEKLADFAASLGDVVERVEVLPFHQLGKDKWAQLGMEYQLNDTPIPTAEQAAHARALFASRGLKVTLEHHHHHH | soluble
MTIKIALLGFGTVAKGIPYLLKENQHKLLSLEGEDIVIDKVLVRDNESRQRFINQGFTYNFVTEINTILQDSQIDIVVELMGGIEPAKTYLSQALGFGKHIVTANKDLIALHGKELMDLADARGLALFYEGAVAGGIPILRTLSHSFASDKMTRLLGILNGTSNFMLTKMFEEGW | not soluble
GSSGARCYVDGSEEIGSDFKIKCEPKEGSLPLQYEWQKLSDSQKMPTSWLAEMTSSVISVKNASSEYSGTYSCTVRNRVGSDQCLLRLNVVPPSNK | soluble
MSLDAMAKILLVEDSATQAVEMTMLLQAANHEVVHVANGQLGLSHLKEQAPDLVITDLEMPEINGLQLVESMRANFSHIPSILVTSHGSEELAAEALRRGAAGYVPKTRMSDLLNDTIVDVLGVIRSDASYAKLISTLKKNVFVFDLPSDPELISPLVGLLMQVSAGMELLPSIEMVRLGVAVEHSLTNAMLHGNLEIPRDKQPSHGQLAREGMINDAMKERLSQEPYKSRVTHVEATASEHAIRIVITDQGPGFDTSNVPQAGELDASSLAASADGVGQADKQGLLLIASFVDQMWFNDEGNQITLVKRCGAEGHHHHHH | not soluble
